In PMC2775414:

Target: heavy meromyosin-like fragment of myosin Va (MyoV-HMM), with its bound calmodulin (mouse | not stated) (UniProt Q99104)
Sequence (Q99104 1-1090): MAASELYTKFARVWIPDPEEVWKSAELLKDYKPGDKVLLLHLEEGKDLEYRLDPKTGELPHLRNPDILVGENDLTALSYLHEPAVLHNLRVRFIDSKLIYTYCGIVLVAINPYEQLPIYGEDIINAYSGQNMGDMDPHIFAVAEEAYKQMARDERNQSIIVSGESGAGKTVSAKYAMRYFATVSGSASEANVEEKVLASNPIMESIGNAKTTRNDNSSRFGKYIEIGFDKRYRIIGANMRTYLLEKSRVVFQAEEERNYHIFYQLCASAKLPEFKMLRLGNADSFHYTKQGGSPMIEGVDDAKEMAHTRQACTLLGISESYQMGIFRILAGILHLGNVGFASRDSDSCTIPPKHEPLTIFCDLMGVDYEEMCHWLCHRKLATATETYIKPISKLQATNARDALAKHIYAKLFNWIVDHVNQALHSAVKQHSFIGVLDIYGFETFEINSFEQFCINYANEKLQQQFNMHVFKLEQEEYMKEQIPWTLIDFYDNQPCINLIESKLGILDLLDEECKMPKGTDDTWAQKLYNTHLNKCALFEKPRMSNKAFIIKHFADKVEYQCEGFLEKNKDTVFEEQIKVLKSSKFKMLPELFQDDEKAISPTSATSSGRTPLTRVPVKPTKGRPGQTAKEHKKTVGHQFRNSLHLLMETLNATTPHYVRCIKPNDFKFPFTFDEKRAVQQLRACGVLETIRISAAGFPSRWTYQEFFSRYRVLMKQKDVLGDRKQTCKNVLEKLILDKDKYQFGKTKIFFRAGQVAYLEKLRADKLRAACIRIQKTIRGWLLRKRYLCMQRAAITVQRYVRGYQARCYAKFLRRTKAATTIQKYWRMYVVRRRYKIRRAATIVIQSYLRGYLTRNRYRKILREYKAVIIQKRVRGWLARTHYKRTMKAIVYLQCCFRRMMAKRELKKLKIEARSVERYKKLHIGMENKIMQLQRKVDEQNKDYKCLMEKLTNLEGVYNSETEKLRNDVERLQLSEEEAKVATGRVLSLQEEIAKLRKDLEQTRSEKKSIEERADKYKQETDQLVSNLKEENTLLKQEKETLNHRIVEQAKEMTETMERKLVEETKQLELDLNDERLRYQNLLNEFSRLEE

“Alexa-Fluor-568-labelled calmodulin (from UniProt P62157 1-149) (natural protein)” was tested, and the labelled calmodulins exchanged per MyoV-HMM was 3 per MyoV-HMM.
